Results reported in patent US20180355053A1 (Stanford University, published 2018).

Legend:
human CD47 = target: T1, human CD47 (human, UniProt Q08722 19-323); assay: flow cytometry on CD20-CD47+ YB2/0 cells
T1 construct: whole, on cells
Text: FIG. 5A-5B: SIRPα-rituximab bispecific reagents bind to CD47 on the cell surface with reduced affinity relative to anti-CD47. The indicated antibodies were used to stain rat YB2/0 cells engineered to express human CD47, but not human CD20 (CD20−CD47+) prior to detection with fluorescently tagged anti-human secondary antibody by flow cytometry. 2B8=anti-CD20, B6H12=anti-CD47.

human CD20 [1] = target: T2, human CD20 (human, UniProt P11836 1-297); assay: flow cytometry on CD20+CD47- YB2/0 cells
T2 construct: whole, on cells; also called MS4A1
T2 sequence (looked up): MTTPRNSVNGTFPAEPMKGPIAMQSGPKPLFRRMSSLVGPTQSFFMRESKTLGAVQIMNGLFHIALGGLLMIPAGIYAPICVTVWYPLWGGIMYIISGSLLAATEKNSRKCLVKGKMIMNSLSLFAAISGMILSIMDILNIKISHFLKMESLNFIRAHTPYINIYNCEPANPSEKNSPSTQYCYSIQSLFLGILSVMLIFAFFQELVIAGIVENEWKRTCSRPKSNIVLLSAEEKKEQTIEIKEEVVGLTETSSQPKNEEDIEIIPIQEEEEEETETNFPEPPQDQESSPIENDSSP
Text: FIG. 3A-3B: SIRPα-rituximab bispecific reagents bind to CD20 on the cell surface. The indicated antibodies were used to stain rat YB2/0 cells engineered to express human CD20, but not human CD47 (CD20+CD47−) prior to detection with anti-human secondary antibody by flow cytometry. 2B8=anti-CD20, B6H12=anti-CD47.

[2] = target: T3, human CD47 tagged with mouse Fc (human, UniProt Q08722 19-139, limits assumed); assay: ELISA on immobilized recombinant CD47
T3 construct: also called recombinant CD47 antigen
Experimental: FIG. 7: SIRPα-rituximab bispecific reagents bind to CD47 with reduced affinity relative to anti-CD47 and other bispecific antibody formats. Binding of the indicated antibodies to the recombinant CD47 antigen was measured by ELISA over a range of concentrations. Immobilized human CD47 tagged with mouse Fc was used to capture the indicated antibodies prior to detection with HRP-conjugated antibody directed against the human kappa light chain. Data are representative of three experiments performed in triplicate.

human CD20 [3] = target: T2, human CD20; assay: flow cytometry competition with 10 µg/ml DyLight 488 anti-CD20 on CD20+CD47- YB2/0 cells
Text: FIG. 4: SIRPα-rituximab bispecific reagents bind to CD20 with similar affinity as parental antibody.

Measured: binding result

B1: CD20-2GL-SIRPα (bispecific antibody, human IgG1, kappa)
heavy: not shown
light: QIVLSQSPAILSASPGEKVTMTCRASSSVSYIHWFQQKPGSSPKPWIYATSNLASGVPVRFSGSGSGTSYSLTISRVEAEDAATYYCQQWTSNPPTFGGGTKLEIKRTVAAPSVFIFPPSDEQLKSGTASVVCLLNNFYPREAKVQWKVDNALQSGNSQESVTEQDSKDSTYSLSSTLTLSKADYEKHKVYACEVTHQGLSSPVTKSFNRGEC
notes: Wild type human SIRPα N-terminal Ig fold fused to the C terminus of the rituximab heavy chain through (GGGGS)2; also called CD20-2GL-SIRPα HC; SIRPabody
binds: human CD47 | human CD20 [1] | [2]

B2: CD20-4GL-SIRPα (bispecific antibody, human IgG1, kappa)
heavy: not shown
light: B1 light
notes: Wild type human SIRPα N-terminal Ig fold fused to the C terminus of the rituximab heavy chain through (GGGGS)4; also called SIRPabody; SIRPα-rituximab bispecific reagent
binds: human CD47 | human CD20 [1] | [2]

B3: SIRPα-CD20 (bispecific antibody, human IgG1, kappa)
heavy: not shown
light: B1 light
notes: also called SIRPabody; SIRPα-rituximab bispecific reagent
binds: human CD47 | [2] | human CD20 [3]
